Test results taken from patent publication US20250092426, “CAS ENDONUCLEASES AND RELATED METHODS” (Flagship Pioneering Innovations VII, LLC, published 2025).

Target: T1, CasEnd-24 (synthetic construct)
T1 chain: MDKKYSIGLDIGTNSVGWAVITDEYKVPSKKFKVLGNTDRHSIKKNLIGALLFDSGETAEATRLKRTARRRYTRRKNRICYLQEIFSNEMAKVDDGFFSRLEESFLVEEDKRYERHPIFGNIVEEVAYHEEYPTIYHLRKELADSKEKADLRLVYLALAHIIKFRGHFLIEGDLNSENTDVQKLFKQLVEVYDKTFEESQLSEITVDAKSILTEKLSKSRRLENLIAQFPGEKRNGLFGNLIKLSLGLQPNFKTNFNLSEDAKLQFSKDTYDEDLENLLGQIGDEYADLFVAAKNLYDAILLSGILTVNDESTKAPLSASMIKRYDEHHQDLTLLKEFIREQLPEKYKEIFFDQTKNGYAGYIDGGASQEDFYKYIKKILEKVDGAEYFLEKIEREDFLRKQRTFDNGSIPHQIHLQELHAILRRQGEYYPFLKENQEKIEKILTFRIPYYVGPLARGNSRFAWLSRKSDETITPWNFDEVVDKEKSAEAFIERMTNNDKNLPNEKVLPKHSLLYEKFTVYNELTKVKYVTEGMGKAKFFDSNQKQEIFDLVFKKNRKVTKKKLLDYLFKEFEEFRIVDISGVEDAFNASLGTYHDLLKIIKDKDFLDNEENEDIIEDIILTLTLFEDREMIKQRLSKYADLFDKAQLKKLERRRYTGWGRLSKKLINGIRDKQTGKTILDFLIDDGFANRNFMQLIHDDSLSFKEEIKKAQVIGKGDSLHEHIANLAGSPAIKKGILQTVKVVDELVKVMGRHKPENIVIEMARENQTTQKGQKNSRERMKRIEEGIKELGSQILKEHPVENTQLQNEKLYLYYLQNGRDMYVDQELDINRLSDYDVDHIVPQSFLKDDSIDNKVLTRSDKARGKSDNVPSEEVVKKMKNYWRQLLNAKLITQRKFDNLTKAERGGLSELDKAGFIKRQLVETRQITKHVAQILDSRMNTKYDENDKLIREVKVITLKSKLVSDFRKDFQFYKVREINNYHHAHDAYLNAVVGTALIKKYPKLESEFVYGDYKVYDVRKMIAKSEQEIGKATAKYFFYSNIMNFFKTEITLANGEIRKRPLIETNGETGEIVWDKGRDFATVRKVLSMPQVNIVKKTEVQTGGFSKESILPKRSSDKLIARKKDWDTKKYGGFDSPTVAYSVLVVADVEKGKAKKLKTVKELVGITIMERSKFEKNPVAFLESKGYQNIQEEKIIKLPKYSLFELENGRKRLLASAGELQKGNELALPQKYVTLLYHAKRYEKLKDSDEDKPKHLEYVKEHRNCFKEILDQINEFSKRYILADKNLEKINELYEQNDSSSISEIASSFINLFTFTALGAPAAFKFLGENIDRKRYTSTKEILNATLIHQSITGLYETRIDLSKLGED
Assay: cell_activity; +++; HEK293T; PAM not stated
Summary of the method: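 Editing activity was scored as the fraction of GFP+ cells on day 4 by flow cytometry. BFP-expressing HEK293T cells (250,000) received by nucleofection 200 ng plasmid for the RT-Cas fusion protein and 200 ng template RNA plasmid designed to convert BFP to GFP.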

B1: BFP-to-GFP template RNA ; BFP reporter protospacer (ssRNA ; dsDNA)
RNA: GCCGAAGCACUGCACGCCGUGUUUUAGAGCUAGAAAUAGCAAGUUAAAAUAAGGCUAGUCCGUUAUCAACUUGAAAAAGUGGCACCGAGUCGGUGCACCCUGACGUACGGCGUGCAGUGCUU
DNA 1: GCCGAAGCACTGCACGCCGT
DNA 2: ACGGCGTGCAGTGCTTCGGC
activity: ≥ 100 % of reference
